Patent publication US7988958B2, “Enterococcus and Streptococcus strains and bacteriocins” (The United States of America as represented by the …, priority 2005, dated 2011)
“And” between values parts separate entries of the source, which are not always exact repeats. Equal values may be shown once. Read-outs that look alike come from different tables or passages of the source.

What was measured:
C. jejuni = assay: Activity of bacteriocin preparations from culture with and without inducer strain (arbitrary units); assay type: cell-based, Campylobacter jejuni
C. jejuni NCTC 11168 [1] = assay: Spot test; assay type: cell-based, Campylobacter jejuni; settings: for Inhibiting activity in Spot Test: crude antimicrobial preparation (CAP), C. jejuni NCTC 11168; for Inhibiting Activity, Spot Test: purified bacteriocin, C. jejuni
C. jejuni NCTC 11168 [2] = assay: SDS-PAGE gel overlaid with test strain; assay type: cell-based, Campylobacter jejuni; settings: for Inhibiting Activity measured by SDS-PAGE: CAP, active band, C. jejuni NCTC 11168; for Inhibiting Activity SDS-PAGE: purified bacteriocin, C. jejuni
Protocol: (§1) CAPs and bacteriocins were electrophoresed in about 15% […] gel weight, about 1% SDS (9×12 cm) in Tri-glycine buffer. After electrophoresis at about 100 mA for approximately 4 hours, gels were fixed with a solution containing approximately 15% ethanol and approximately 1% acetic acid. The gels were then washed with distilled water for approximately 4 hours. To determine molecular weights of protein fractions, the gel was stained with a solution containing approximately 0.21% Coomassi Blue G-250, about 40% ethanol, and about 7% acetic acid. Washed gels were tested against three target bacteria, C. jejuni NCTC 11168, E. coli 0157:H7 904, and S. enteritidis 204 by the method of Bhunia et al. (Journal of Industrial Microbiology, Volume 2, 319-322, 1987; herein incorporated by reference). The gels were placed in Petri dishes, covered with 5% blood-semi-solid Campylobacter agar (about 0.75%) or semi-solid MPA, and seeded with cells of the test strains. Plates containing C. jejuni were incubated at about 42° C. for approximately 48 hours under microaerobic conditions, E. coli 0157:H7 and S. enteriditidis at about 37° C. for approximately 24 hours. Assessment was based on visualization of zones of the inhibited growth of the test strains in the presence of bacteriocins.

E. coli O157:H7 904 [3] = assay: SDS-PAGE gel overlaid with test strain; assay type: cell-based; settings: for Inhibiting Activity measured by SDS-PAGE: CAP, active band, E. coli O157:H7 904; for Inhibiting Activity SDS-PAGE: purified bacteriocin, E. coli O157:H7
Protocol: as §1

S. enteritidis 204 [4] = assay: SDS-PAGE gel overlaid with test strain; assay type: cell-based; settings: for Inhibiting Activity measured by SDS-PAGE: CAP, active band; for Inhibiting Activity SDS-PAGE: purified bacteriocin
Protocol: as §1

C. jejuni NCTC 11168 [5] = assay: IEF gel tested for growth inhibition of test strain; assay type: cell-based, Campylobacter jejuni; settings: for Inhibiting Activity measured by IEF: CAP, active band, C. jejuni NCTC 11168; for Inhibiting Activity IEF: purified bacteriocin, C. jejuni
Protocol: as §1
(§2) Specimens of bacteriocins were placed on IEF gels (pH approximately 4.4-10.0) (Novex, San Diego, Calif.). The gels were run at about 100V for about 1 hour, 200V for about 2 hour, and 500V for about 30 minutes in XCM II™ Mini-Cell (Novex). Gels were washed with distilled water for about 4 hours without fixation followed by staining with Coomassie Blue G-250 to determine isoelectric points (pI) of the bacteriocins and their ability to inhibit the growth of the test strains as presented in FIGS. 1 and 2 and in Table 2.

E. coli O157:H7 904 [6] = assay: as above; assay type: cell-based; settings: for Inhibiting Activity measured by IEF: CAP, active band, E. coli O157:H7 904; for Inhibiting Activity IEF: purified bacteriocin, E. coli O157:H7
Protocol: as §1, §2

S. enteritidis 204 [7] = assay: as above; assay type: cell-based; settings: for Inhibiting Activity measured by IEF: CAP, active band; for Inhibiting Activity IEF: purified bacteriocin
Protocol: as §1, §2

C. jejuni NCTC 11168 [8] = assay: Influence of enzymes on bacteriocin activity (spot test); assay type: physicochemical, Campylobacter jejuni
S. enteritidis 204 [9] = assay: MIC by spot test; assay type: cell-based
S. enteritidis 237 = assay: MIC by spot test; assay type: cell-based
S. choleraesuis 434/4 = assay: MIC by spot test; assay type: cell-based
S. choleraesuis 370 = assay: MIC by spot test; assay type: cell-based
S. typhimurium 383/60 = assay: MIC by spot test; assay type: cell-based
S. gallinarum pullorum = assay: MIC by spot test; assay type: cell-based
E. coli HB101 = assay: MIC by spot test; assay type: cell-based
E. coli C600 = assay: MIC by spot test; assay type: cell-based
E. coli O157:H7 Y-63 = assay: MIC by spot test; assay type: cell-based
Y. enterocolitica 03 = assay: MIC by spot test; assay type: cell-based
Y. enterolitica 09 = assay: MIC by spot test; assay type: cell-based, Y. enterocolitica
Y. enterolitica 04 = assay: MIC by spot test; assay type: cell-based, Y. enterocolitica
Klebsiella pneumoniae = assay: MIC by spot test; assay type: cell-based
Staphylococcus aureus [10] = assay: MIC by spot test; assay type: cell-based
[11] = system: Pseudomonas aeruginosa 25583; assay: MIC by spot test; assay type: cell-based
Proteus mirabilis = assay: MIC by spot test; assay type: cell-based
Morganella morganii = assay: MIC by spot test; assay type: cell-based
C. jejuni L4 = assay: MIC by spot test; assay type: cell-based
Helicobacter pylori = assay: MIC of purified bacteriocins and antibiotic by Spot Test; assay type: cell-based; settings: H. pylori; 24 hours at 37° C., microaerobic
Protocol: (§3) The minimal inhibiting concentrations (MICs) of bacteriocins 760 and 50-52 and Methicillin were determined by Spot Test. Various concentrations of purified bacteriocins (μg/ml) in a volume of 10 μl was added to cultures of Staphylococcus aureus, Staphylococcus epidermidis, Pseudomonas aeruginosa, and Helicobacter pylori. The cultures were incubated for about 24 hours at about 37° C. under aerobic conditions for all but Helicobacter pylori which was incubated under microaerobic conditions.

Pseudomonas aeruginosa = assay: as above; assay type: cell-based; settings: P. aeruginosa; 24 hours at 37° C., aerobic
Protocol: as §3

Staphylococcus aureus [12] = assay: as above; assay type: cell-based; settings: S. aureus; 24 hours at 37° C., aerobic
Protocol: as §3

[13] = system: Staphylococcus epidermidis; assay: as above; assay type: cell-based; settings: S. epidermidis; 24 hours at 37° C., aerobic
Protocol: as §3

[14] = cultivation with inducer strain
[15] = cultivation without inducer strain

With “Bacteriocin 50-52: bacteriocin produced by Enterococcus durans/faecium/hirae NRRL B-30746 (strain 50-52); amino acid sequence SEQ ID NO 1 (TTKNYGNGVCNSVNWCQCGNVWASCNLATGCAAWLCKLA; listed as Enterococcus faecium)” the “Activity AU/ml” value (C. jejuni; [14]) was 12,800 AU/ml, the “Specific Activity AU/mg” value (C. jejuni; [14]) was 320,000 AU/mg and the “Activity AU/ml” value (C. jejuni; [15]) was 3,200 AU/ml. The “Specific Activity AU/mg” value (C. jejuni; [15]) was 213,333 AU/mg, the “Inhibiting activity in Spot Test” value (C. jejuni NCTC 11168 [1]) was 12,800 AU/ml and the “Inhibiting Activity, Spot Test” value (C. jejuni NCTC 11168 [1]) was 12,800 AU/ml. The “Inhibiting Activity measured by SDS-PAGE” value (C. jejuni NCTC 11168 [2]) was “M.W. 3.9 kDa”, the “Inhibiting Activity SDS-PAGE” value (C. jejuni NCTC 11168 [2]) was “+Band 1” and the “Inhibiting Activity measured by SDS-PAGE” value (E. coli O157:H7 904 [3]) was “M.W. 3.9 kDa”. The “Inhibiting Activity SDS-PAGE” value (E. coli O157:H7 904 [3]) was “+Band 1”, the “Inhibiting Activity measured by SDS-PAGE” value (S. enteritidis 204 [4]) was “M.W. 3.9 kDa” and the “Inhibiting Activity SDS-PAGE” value (S. enteritidis 204 [4]) was “+Band 1”. The “Inhibiting Activity measured by IEF” value (C. jejuni NCTC 11168 [5]) was “band 1”, the “Inhibiting Activity IEF” value (C. jejuni NCTC 11168 [5]) was “+Band 1” and the “Inhibiting Activity measured by IEF” value (E. coli O157:H7 904 [6]) was “band 1”. The “Inhibiting Activity IEF” value (E. coli O157:H7 904 [6]) was “+Band 1”, the “Inhibiting Activity measured by IEF” value (S. enteritidis 204 [7]) was “band 1” and the “Inhibiting Activity IEF” value (S. enteritidis 204 [7]) was “+Band 1”. The “Antimicrobial activity after treatment” value (C. jejuni NCTC 11168 [8]; treated with beta-chymotrypsin) was “lost their antimicrobial activity”, the “Antimicrobial activity after treatment” value (C. jejuni NCTC 11168 [8]; treated with lipase) was “retained it” and the “Antimicrobial activity after treatment” value (C. jejuni NCTC 11168 [8]; treated with lysozyme) was “retained it”. For the same molecule, the “Antimicrobial activity after treatment” value (C. jejuni NCTC 11168 [8]; treated with papain) was “lost their antimicrobial activity”, the “Antimicrobial activity after treatment” value (C. jejuni NCTC 11168 [8]; treated with proteinase K) was “lost their antimicrobial activity” and the MICs (S. enteritidis 204 [9]) was 0.2 µg/mL. The MICs (S. enteritidis 237) was 0.1 µg/mL, the MICs (S. choleraesuis 434/4) was 0.1 µg/mL and the MICs (S. choleraesuis 370) was 0.1 µg/mL. For the same molecule, the MICs (S. typhimurium 383/60) was 0.1 µg/mL, the MICs (S. gallinarum pullorum) was 0.1 µg/mL and the MICs (E. coli HB101) was 0.1 µg/mL. It also gave an MICs (E. coli C600) of 0.1 µg/mL, an MICs (E. coli O157:H7 Y-63) of 0.1 µg/mL and an MICs (Y. enterocolitica 03; Y. enterolitica 03) of 0.1 µg/mL. For the same molecule, the MICs (Y. enterolitica 09) was 0.4 µg/mL, the MICs (Y. enterolitica 04) was 0.1 µg/mL and the MICs (Klebsiella pneumoniae) was 0.2 µg/mL. For the same molecule, the MICs (Staphylococcus aureus [10]) was 0.4 µg/mL, the MICs [11] was 3.2 µg/mL and the MICs (Proteus mirabilis) was 1.6 µg/mL. For the same molecule, the MICs (Morganella morganii) was 3.2 µg/mL, the MICs (C. jejuni L4; C. jejuni L-4) was 0.2 µg/mL and the “MIC of purified Bacteriocins and Antibiotic” value (Helicobacter pylori) was 0.8 µg/mL. The “MIC of purified Bacteriocins and Antibiotic” value (Pseudomonas aeruginosa) was 0.8 µg/mL, the “MIC of purified Bacteriocins and Antibiotic” value (Staphylococcus aureus [12]) was 0.1 µg/mL and the “MIC of purified Bacteriocins and Antibiotic” value [13] was 0.4 µg/mL.

B1: Bacteriocin 760: bacteriocin produced by Enterococcus durans/faecium/hirae NRRL B-30745 (strain 760); amino acid sequence SEQ ID NO 2 (protein, listed as Streptococcus cricetus)
chain: NRWYCNSAAGGVGGAAVCGLAGYVGEAKENIAGEVRKGWGMAGGFTHNKACKSFPGSGWASG
B1 was tested, and the “Specific Activity AU/mg” value (C. jejuni) was 160,000 AU/mg and 284,444 AU/mg, the “Inhibiting activity in Spot Test” value (C. jejuni NCTC 11168 [1]) was 51,200 AU/ml and the “Inhibiting Activity, Spot Test” value (C. jejuni NCTC 11168 [1]) was 51,200 AU/ml. For the same molecule, the “Inhibiting Activity measured by SDS-PAGE” value (C. jejuni NCTC 11168 [2]) was “M.W. 5.5 kDa”, the “Inhibiting Activity SDS-PAGE” value (C. jejuni NCTC 11168 [2]) was “+Band 1” and the “Inhibiting Activity measured by SDS-PAGE” value (E. coli O157:H7 904 [3]) was “M.W. 5.5 kDa”. The “Inhibiting Activity SDS-PAGE” value (E. coli O157:H7 904 [3]) was “+Band 1”, the “Inhibiting Activity measured by SDS-PAGE” value (S. enteritidis 204 [4]) was “M.W. 5.5 kDa” and the “Inhibiting Activity SDS-PAGE” value (S. enteritidis 204 [4]) was “+Band 1”. For the same molecule, the “Inhibiting Activity measured by IEF” value (C. jejuni NCTC 11168 [5]) was “band 1”, the “Inhibiting Activity IEF” value (C. jejuni NCTC 11168 [5]) was “+Band 1” and the “Inhibiting Activity measured by IEF” value (E. coli O157:H7 904 [6]) was “band 1”. For the same molecule, the “Inhibiting Activity IEF” value (E. coli O157:H7 904 [6]) was “+Band 1”, the “Inhibiting Activity measured by IEF” value (S. enteritidis 204 [7]) was “band 1” and the “Inhibiting Activity IEF” value (S. enteritidis 204 [7]) was “+Band 1”. The “Antimicrobial activity after treatment” value (C. jejuni NCTC 11168 [8]; treated with beta-chymotrypsin) was “lost their antimicrobial activity”, the “Antimicrobial activity after treatment” value (C. jejuni NCTC 11168 [8]; treated with lipase) was “retained it” and the “Antimicrobial activity after treatment” value (C. jejuni NCTC 11168 [8]; treated with lysozyme) was “retained it”. For the same molecule, the “Antimicrobial activity after treatment” value (C. jejuni NCTC 11168 [8]; treated with papain) was “lost their antimicrobial activity”, the “Antimicrobial activity after treatment” value (C. jejuni NCTC 11168 [8]; treated with proteinase K) was “lost their antimicrobial activity” and the MIC (S. enteritidis 204 [9]) was 0.2 mg/mL. It also gave an MIC (S. enteritidis 237) of 0.2 mg/mL, an MIC (S. choleraesuis 434/4) of 0.4 mg/mL and an MIC (S. choleraesuis 370) of 0.4 mg/mL. For the same molecule, the MIC (S. typhimurium 383/60) was 0.4 mg/mL, the MIC (S. gallinarum pullorum) was 0.4 mg/mL and the MIC (E. coli HB101) was 0.1 mg/mL. The MIC (E. coli C600) was 0.1 mg/mL, the MIC (E. coli O157:H7 Y-63) was 1.6 mg/mL and the MIC (Y. enterocolitica 03; Y. enterocolitica 03) was 0.1 mg/mL. It also gave an MIC (Y. enterolitica 09) of 0.1 mg/mL, an MIC (Y. enterolitica 04) of 0.1 mg/mL and an MIC (Klebsiella pneumoniae) of 3.2 mg/mL. It also gave an MIC (Staphylococcus aureus [10]) of 1.6 mg/mL, an MIC [11] of 0.4 mg/mL and an MIC (Proteus mirabilis) of 3.2 mg/mL. For the same molecule, the MIC (Morganella morganii) was 3.2 mg/mL, the MIC (C. jejuni L4; C. jejuni L4) was 0.1 mg/mL and the “MIC of purified Bacteriocins and Antibiotic” value (Helicobacter pylori) was 0.2 µg/mL. The “MIC of purified Bacteriocins and Antibiotic” value (Pseudomonas aeruginosa) was 0.4 µg/mL, the “MIC of purified Bacteriocins and Antibiotic” value (Staphylococcus aureus [12]) was 1.6 µg/mL and the “MIC of purified Bacteriocins and Antibiotic” value [13] was 1.6 µg/mL.
